pKd: −log10 of the molar value.
What was measured:
[1] = target: Nematostella vectensis β-catenin, full length (Nematostella vectensis); test: ITC
[2] = target: F-actin polymerised from chicken muscle G-actin (chicken) (UniProt P68139); test: co-sedimentation

Substance “Nematostella vectensis Cadherin-1 cytoplasmic region (domain or fragment)” has a pKd [1] of 8.10.
“Nematostella vectensis Cadherin-2 cytoplasmic region (domain or fragment)” gave a pKd [1] of 8.89.
“Nematostella vectensis α-catenin lacking the insert (residues 638-1,021 deleted) (domain or fragment)” showed a pKd [2] of under 4.92.
Work on “Nematostella vectensis α-catenin, full length (natural protein)” yielded a pKd [2] of 6.10.

Source: article PMC4948710
